# Experimental data as given in patent US20130280282A1, “DR5 LIGAND DRUG CONJUGATES” (Daiichi Sankyo Co., Ltd., priority 2012, published 2013).
# B1: hB273 antibody (humanized B273) (antibody, human IgG1, kappa, V domains shown)
# VH: EVQLVQSGAEVKKPGASVKVSCKASGYSFIGYFMNWMKQSPGMSLEWIGRFNPYNEDTFYNQKFKGKATLTVDKSTSTAYMELSSLRSEDTAVYFCARSAYYFDSGGYFDYWGQGTLVTVSS
# VL: DIVMTQSPLSLPVTPGEPASISCRSSQSLVHSNKNTYLHWYLQKPGQSPQLLIYKVSNRFSGVPDRFSGSGSGTDFTLKISRVEAEDVGVYYCSQSTHVPWTFGPGTKVEIKR
# notes: Anti-DR5 antibody
# B2: hB273-vc-MMAE (antibody drug conjugate of hB273 conjugated with mc-vc-MMAE) (antibody, V domains shown)
# VH: EVQLVQSGAEVKKPGASVKVSCKASGYSFIGYFMNWMKQSPGMSLEWIGRFNPYNEDTFYNQKFKGKATLTVDKSTSTAYMELSSLRSEDTAVYFCARSAYYFDSGGYFDYWGQGTLVTVSS
# VL: DIVMTQSPLSLPVTPGEPASISCRSSQSLVHSNKNTYLHWYLQKPGQSPQLLIYKVSNRFSGVPDRFSGSGSGTDFTLKISRVEAEDVGVYYCSQSTHVPWTFGPGTKVEIKR
# modifications: mc-vc-MMAE drug-linker on cysteine thiols freed by partial TCEP reduction; average about 3.5 to 4.5 drug-linker units per antibody; positions not given
# notes: Antibody drug conjugate of hB273; also called hB273-veMMAE
# Tests used:
# [1] = target: T1, recombinant soluble DR5 protein (rsDR5) (human, UniProt O14763 56-183); assay: SPR, BIAcore 3000; antibody captured by anti-human IgG (Fc) on CM5 chip, rsDR5 0.3-85 nM as analyte
# T1 construct: Expressed in E. coli from pET21b(+)-sDR5 and purified on Ni-NTA; also called DR5 extracellular domain protein
# Description: (§1) For the direct coupling of anti-human IgG (Fc), CM5 sensor chips and the reference flow cells were coated with ˜1500-2000 RU in HBS-EP+(10 mM HEPES buffer, pH 7.4, 0.15 M NaCl, 3 mM EDTA, and 0.05% Surfactant P20). […] For regeneration, 3 M MgCl₂ was loaded at flow rate of 10 μl/min for 30 sec. All sensograms were globally fitted using BIAevaluation software 3.1 (Biacore) to determine the dissociation constant KD (KD=koff/kₒₙ).
# [2] = target: T1, recombinant soluble DR5 protein (rsDR5); assay: SPR, BIAcore 3000; conjugate captured by anti-human IgG (Fc) on CM5 chip, rsDR5 0.3-85 nM as analyte
# Description: as §1
Binder,Kd [1],kon [1],Kd [2]
B1,2.6 nM,2.6e+06 M⁻¹ s⁻¹,–
B2,–,–,3.2 nM
